Paper PMC5563082 (2017)
Where two headings read alike, the source gives them in different places.

B1: human MDGA2 extracellular domain (MDGA2_(ECTO); Gln21-Lys927) (domain or fragment)
chain: QGVYAPPTVRIVHSGLACNIEEERYSERVYTIREGETLELTCLVTGHPRPQIRWTKTAGSASDRFQDSSVFNETLRITNIQRHQGGRYYCKAENGLGSPAIKSIRVDVYYLDDPVVTVHQSIGEAKEQFYYERTVFLRCVANSNPPVRYSWRRGQEVLLQGSDKGVEIYEPFFTQGETKILKLKNLRPQDYANYSCIASVRNVCNIPDKMVSFRLSNKTASPSIKLLVDDPIVVNPGEAITLVCVTTGGEPAPSLTWVRSFGTLPEKTVLNGGTLTIPAITSDDAGTYSCIANNNVGNPAKKSTNIIVRALKKGRFWITPDPYHKDDNIQIGREVKISCQVEAVPSEELTFSWFKNGRPLRSSERMVITQTDPDVSPGTTNLDIIDLKFTDFGTYTCVASLKGGGISDISIDVNISSSTVPPNLTVPQEKSPLVTREGDTIELQCQVTGKPKPIILWSRADKEVAMPDGSMQMESYDGTLRIVNVSREMSGMYRCQTSQYNGFNVKPREALVQLIVQYPPAVEPAFLEIRQGQDRSVTMSCRVLRAYPIRVLTYEWRLGNKLLRTGQFDSQEYTEYAVKSLSNENYGVYNCSIINEAGAGRCSFLVTGKAYAPEFYYDTYNPVWQNRHRVYSYSLQWTQMNPDAVDRIVAYRLGIRQAGQQRWWEQEIKINGNIQKGELITYNLTELIKPEAYEVRLTPLTKFGEGDSTIRVIKYSAPVNPHLREFHCGFEDGNICLFTQDDTDNFDWTKQSTATRNTKYTPNTGPNADRSGSKEGFYMYIETSRPRLEGEKARLLSPVFSIAPKNPYGPTNTAYCFSFFYHMYGQHIGVLNVYLRLKGQTTIENPLWSSSGNKGQRWNEAHVNIYPITSFQLIFEGIRGPGIEGDIAIDDVSIAEGECAKQDLATK
B2: human β-neurexin-1 LNS6 domain with SS4 (β-NRX1_(LNS6)(+4)) (domain or fragment)
chain: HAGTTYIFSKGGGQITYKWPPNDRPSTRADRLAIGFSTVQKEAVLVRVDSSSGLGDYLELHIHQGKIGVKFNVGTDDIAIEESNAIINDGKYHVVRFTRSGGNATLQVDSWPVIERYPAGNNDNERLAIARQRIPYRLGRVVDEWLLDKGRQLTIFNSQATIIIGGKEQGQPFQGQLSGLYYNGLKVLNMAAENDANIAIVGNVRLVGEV
B3: human MDGA1 extracellular domain (MDGA1_(ECTO); Gln19-Lys925) (domain or fragment)
chain: QGVYAPAQAQIVHAGQACVVKEDNISERVYTIREGDTLMLQCLVTGHPRPQVRWTKTAGSASDKFQETSVFNETLRIERIARTQGGRYYCKAENGVGVPAIKSIRVDVQYLDEPMLTVHQTVSDVRGNFYQEKTVFLRCTVNSNPPARFIWKRGSDTLSHSQDNGVDIYEPLYTQGETKVLKLKNLRPQDYASYTCQVSVRNVCGIPDKAITFRLTNTTAPPALKLSVNETLVVNPGENVTVQCLLTGGDPLPQLQWSHGPGPLPLGALAQGGTLSIPSVQARDSGYYNCTATNNVGNPAKKTVNLLVRSMKNATFQITPDVIKESENIQLGQDLKLSCHVDAVPQEKVTYQWFKNGKPARMSKRLLVTRNDPELPAVTSSLELIDLHFSDYGTYLCMASFPGAPVPDLSVEVNISSETVPPTISVPKGRAVVTVREGSPAELQCEVRGKPRPPVLWSRVDKEAALLPSGLPLEETPDGKLRLERVSRDMSGTYRCQTARYNGFNVRPREAQVQLNVQFPPEVEPSSQDVRQALGRPVLLRCSLLRGSPQRIASAVWRFKGQLLPPPPVVPAAAEAPDHAELRLDAVTRDSSGSYECSVSNDVGSAACLFQVSAKAYSPEFYFDTPNPTRSHKLSKNYSYVLQWTQREPDAVDPVLNYRLSIRQLNQHNAVVKAIPVRRVEKGQLLEYILTDLRVPHSYEVRLTPYTTFGAGDMASRIIHYTEPINSPNLSDNTCHFEDEKICGYTQDLTDNFDWTRQNALTQNPKRSPNTGPPTDISGTPEGYYMFIETSRPRELGDRARLVSPLYNASAKFYCVSFFYHMYGKHIGSLNLLVRSRNKGALDTHAWSLSGNKGNVWQQAHVPISPSGPFQIIFEGVRGPGYLGDIAIDDVTLKKGECPRKQTDPNK
B4: human β-neurexin-1 LNS6 domain lacking SS4 (β-NRX1_(LNS6)(–4); His85-Val265) (domain or fragment)
chain: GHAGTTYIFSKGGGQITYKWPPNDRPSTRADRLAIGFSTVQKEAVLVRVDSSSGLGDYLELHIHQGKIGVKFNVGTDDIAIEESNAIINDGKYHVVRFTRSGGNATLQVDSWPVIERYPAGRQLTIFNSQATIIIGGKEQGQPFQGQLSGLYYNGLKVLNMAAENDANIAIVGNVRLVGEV

What was measured:
Assay in all cases: SPR
[1] = target: T1, human NL3(–A)_(ECTO) (Gln38-Asp636), immobilised for SPR (human, UniProt Q9NZ94-1 38-636, –A: nothing between Asp152 and Asp193, biotin on the Avitag (in vivo biotinylation by BirA))
T1 sequence (Q9NZ94 other isoform, or with tags, fused parts or gaps –A: nothing between Asp152 and Asp193): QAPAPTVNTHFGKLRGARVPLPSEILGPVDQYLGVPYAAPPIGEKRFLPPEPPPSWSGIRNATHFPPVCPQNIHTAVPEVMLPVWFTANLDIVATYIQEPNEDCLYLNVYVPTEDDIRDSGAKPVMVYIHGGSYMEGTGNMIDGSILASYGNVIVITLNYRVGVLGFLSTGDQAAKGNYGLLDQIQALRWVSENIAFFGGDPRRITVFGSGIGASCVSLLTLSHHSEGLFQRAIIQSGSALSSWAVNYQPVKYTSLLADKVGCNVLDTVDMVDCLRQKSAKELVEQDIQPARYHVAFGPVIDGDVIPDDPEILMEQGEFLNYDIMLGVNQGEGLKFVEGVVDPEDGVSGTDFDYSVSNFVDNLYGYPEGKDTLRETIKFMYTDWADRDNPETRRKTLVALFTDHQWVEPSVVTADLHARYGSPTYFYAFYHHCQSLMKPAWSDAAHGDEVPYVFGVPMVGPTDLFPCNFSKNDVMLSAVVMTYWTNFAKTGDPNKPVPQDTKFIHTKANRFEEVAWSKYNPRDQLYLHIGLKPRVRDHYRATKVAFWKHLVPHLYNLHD

[2] = target: T2, human NL1(+A1+A2–B)_(ECTO), immobilised for SPR (human, biotin on the Avitag (in vivo biotinylation by BirA))
T2 chain: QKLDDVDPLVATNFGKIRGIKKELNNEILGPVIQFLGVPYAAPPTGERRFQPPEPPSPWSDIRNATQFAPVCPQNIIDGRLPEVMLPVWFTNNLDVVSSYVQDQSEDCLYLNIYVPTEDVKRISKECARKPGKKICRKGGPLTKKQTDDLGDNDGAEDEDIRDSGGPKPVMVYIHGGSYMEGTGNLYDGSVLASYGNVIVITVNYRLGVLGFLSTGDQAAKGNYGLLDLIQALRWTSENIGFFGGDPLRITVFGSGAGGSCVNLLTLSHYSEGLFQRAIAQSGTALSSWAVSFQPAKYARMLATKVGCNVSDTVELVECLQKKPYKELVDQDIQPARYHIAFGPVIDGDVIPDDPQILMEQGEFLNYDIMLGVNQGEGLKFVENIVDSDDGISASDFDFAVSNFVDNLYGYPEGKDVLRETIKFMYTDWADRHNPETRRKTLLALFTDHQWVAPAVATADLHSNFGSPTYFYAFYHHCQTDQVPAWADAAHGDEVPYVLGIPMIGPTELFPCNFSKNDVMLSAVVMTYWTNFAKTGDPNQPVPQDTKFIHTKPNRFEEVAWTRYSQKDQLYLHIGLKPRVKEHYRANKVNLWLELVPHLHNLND

[3] = target: T3, human NL1(+A1–B)_(ECTO), immobilised for SPR (human, biotin on the Avitag (in vivo biotinylation by BirA))
T3 chain: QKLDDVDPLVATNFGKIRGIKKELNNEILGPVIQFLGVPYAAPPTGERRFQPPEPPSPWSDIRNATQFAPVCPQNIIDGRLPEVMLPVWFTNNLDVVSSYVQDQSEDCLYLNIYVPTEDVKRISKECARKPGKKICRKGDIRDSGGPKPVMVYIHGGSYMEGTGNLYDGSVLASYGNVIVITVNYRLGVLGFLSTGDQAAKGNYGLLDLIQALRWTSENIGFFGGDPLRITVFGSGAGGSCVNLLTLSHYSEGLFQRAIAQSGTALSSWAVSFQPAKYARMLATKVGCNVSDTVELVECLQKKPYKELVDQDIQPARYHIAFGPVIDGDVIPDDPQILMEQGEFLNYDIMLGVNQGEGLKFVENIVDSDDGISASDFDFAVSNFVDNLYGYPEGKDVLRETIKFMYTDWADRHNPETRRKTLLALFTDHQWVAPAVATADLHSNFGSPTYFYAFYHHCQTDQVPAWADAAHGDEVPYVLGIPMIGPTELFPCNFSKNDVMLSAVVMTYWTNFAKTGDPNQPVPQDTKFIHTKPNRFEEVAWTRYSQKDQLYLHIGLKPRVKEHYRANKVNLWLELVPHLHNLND

[4] = target: T4, human NL1(+A2–B)_(ECTO), immobilised for SPR (human, biotin on the Avitag (in vivo biotinylation by BirA))
T4 chain: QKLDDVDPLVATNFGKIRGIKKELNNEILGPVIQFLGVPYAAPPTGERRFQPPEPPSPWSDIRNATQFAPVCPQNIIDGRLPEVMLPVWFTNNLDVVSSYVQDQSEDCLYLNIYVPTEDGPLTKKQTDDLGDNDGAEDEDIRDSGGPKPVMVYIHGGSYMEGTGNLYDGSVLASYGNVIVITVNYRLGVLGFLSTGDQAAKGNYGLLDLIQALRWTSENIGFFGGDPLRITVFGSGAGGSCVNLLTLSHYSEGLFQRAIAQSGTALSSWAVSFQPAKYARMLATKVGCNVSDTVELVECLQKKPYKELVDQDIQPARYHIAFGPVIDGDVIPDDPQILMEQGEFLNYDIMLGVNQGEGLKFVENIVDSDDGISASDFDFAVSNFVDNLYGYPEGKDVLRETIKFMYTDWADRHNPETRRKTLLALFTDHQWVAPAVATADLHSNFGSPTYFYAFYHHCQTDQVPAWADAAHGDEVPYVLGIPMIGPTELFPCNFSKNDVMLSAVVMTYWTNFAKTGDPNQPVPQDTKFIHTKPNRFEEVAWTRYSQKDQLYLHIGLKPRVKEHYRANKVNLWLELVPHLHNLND

[5] = target: T1, human NL3(–A)_(ECTO) (Gln38-Asp636), …; remark: listed apart in the source
[6] = target: T5, human NL1(–A–B)_(ECTO), biotinylated and immobilised for SPR (human, biotin on the Avitag (in vivo biotinylation by BirA))
T5 chain: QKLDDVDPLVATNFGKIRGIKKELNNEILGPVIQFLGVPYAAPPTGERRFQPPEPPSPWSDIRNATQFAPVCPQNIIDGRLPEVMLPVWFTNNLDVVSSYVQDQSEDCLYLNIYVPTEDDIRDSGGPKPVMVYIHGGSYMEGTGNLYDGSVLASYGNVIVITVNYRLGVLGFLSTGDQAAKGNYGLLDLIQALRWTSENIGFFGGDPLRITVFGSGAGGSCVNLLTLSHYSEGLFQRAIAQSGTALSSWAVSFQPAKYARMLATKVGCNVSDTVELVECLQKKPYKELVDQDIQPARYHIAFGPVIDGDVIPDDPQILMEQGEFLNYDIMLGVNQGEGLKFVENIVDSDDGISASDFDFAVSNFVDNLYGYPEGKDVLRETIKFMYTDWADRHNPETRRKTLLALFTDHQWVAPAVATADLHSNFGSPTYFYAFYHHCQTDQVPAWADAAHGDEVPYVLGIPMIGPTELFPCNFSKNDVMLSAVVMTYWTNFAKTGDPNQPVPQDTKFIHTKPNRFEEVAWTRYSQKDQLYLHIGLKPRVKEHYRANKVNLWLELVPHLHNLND

Row | Binder | Kd [1] | Kd [2] | Kd [3] | Kd [4] | Kd [5] | Kd [6]
1 | B1 | 27600 nM | 1410 nM | 1200 nM | 1460 nM | 24900 nM | 1690 nM
2 | B2 | 22100 nM | 2710 nM | 2820 nM | 2750 nM | 36800 nM | 2630 nM
3 | B3 | 14600 nM | 3050 nM | 2080 nM | 3210 nM | 17100 nM | 3620 nM
4 | B4 |  | 784 nM | 766 nM | 795 nM | 9480 nM | 640 nM
